One molecule from paper PMC6336354, “A transient helix in the disordered region of dynein light intermediate chain links the motor to structurally diverse adaptors for cargo transport” (PLoS Biology, 2019) can be followed below.

Common to all, as to conditions: both partners purified
The target of assay [1] is T1, BICD2(2–422)::Strep-tag II (human, UniProt Q8TD16 2-422).
T1 construct: human bicaudal D homolog 2 (BICD2), N-terminal region, residues 2-422; also called bicaudal D homolog 2; source: E. coli BL21, purified (Ni-NTA, TEV cleavage, Strep-Tactin; dialysis or SEC); not shown: 6xHis::MBP, N-terminal, cleaved; Strep-tag II (after linker GSGSGR), C-terminal, kept
Kind of assay: SPR; Biacore 3000; His-tagged LIC1 immobilised on NTA chip (200–300 RU), Strep-tagged adaptor as analyte; HBS-P (10 mM HEPES, 150 mM NaCl, 0.005% surfactant P20, pH 7.4). On the technique in general: In SPR one partner is held on a chip, and binding of the other changes the refractive index at the surface.

For assay [2], the target named is T2, SPDL1(2–359)::Strep-tag II (human, UniProt Q96EA4 2-359).
T2 construct: human Spindly (SPDL1), N-terminal region, residues 2-359; also called Spindly; source: E. coli BL21, purified (Ni-NTA, TEV cleavage, Strep-Tactin; dialysis or SEC); not shown: 6xHis::MBP, N-terminal, cleaved; Strep-tag II (after linker GSGSGR), C-terminal, kept
T2 sequence (looked up): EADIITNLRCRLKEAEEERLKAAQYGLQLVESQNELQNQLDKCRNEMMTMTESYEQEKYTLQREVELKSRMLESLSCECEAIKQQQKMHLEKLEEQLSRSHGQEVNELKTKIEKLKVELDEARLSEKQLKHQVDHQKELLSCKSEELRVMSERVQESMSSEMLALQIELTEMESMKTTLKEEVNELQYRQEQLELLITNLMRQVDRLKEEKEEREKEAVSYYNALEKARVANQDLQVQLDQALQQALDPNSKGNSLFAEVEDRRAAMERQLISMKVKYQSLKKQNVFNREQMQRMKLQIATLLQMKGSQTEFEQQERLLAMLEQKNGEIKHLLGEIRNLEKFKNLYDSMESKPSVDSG
The description is as above.

Assay [3] concerns the target T3, HOOK3(2–239)::Strep-tag II (human, UniProt Q86VS8 2-239).
T3 construct: human Hook homolog 3 (HOOK3), residues 2-239; used for NMR, SPR and MST; also called Hook homolog 3; source: E. coli Rosetta, purified (Ni-NTA, TEV cleavage, Strep-Tactin; dialysis or SEC); not shown: 6xHis::MBP, N-terminal, cleaved; Strep-tag II (after linker GSGSGR), C-terminal, kept
T3 sequence (looked up): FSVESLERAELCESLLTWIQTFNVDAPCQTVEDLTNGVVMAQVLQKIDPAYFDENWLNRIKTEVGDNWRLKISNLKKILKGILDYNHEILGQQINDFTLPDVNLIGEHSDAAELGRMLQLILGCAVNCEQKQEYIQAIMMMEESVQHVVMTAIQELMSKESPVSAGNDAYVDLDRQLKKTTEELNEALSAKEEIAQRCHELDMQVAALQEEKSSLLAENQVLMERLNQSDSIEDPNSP
Described as above.

Assay [4] has as its target T1, BICD2(2–422)::Strep-tag II. Briefly: MST; 10 nM LIC1(388–523)::6xHis labelled with Red-Tris NTA dye; 16 two-fold dilutions of adaptor::Strep-tag II; 25°C.
The target in assay [5] is T2, SPDL1(2–359)::Strep-tag II. The description is as above.
Assay [6] addresses T3, HOOK3(2–239)::Strep-tag II. The assay is described as above.

T1 sequence (Q8TD16 2-422): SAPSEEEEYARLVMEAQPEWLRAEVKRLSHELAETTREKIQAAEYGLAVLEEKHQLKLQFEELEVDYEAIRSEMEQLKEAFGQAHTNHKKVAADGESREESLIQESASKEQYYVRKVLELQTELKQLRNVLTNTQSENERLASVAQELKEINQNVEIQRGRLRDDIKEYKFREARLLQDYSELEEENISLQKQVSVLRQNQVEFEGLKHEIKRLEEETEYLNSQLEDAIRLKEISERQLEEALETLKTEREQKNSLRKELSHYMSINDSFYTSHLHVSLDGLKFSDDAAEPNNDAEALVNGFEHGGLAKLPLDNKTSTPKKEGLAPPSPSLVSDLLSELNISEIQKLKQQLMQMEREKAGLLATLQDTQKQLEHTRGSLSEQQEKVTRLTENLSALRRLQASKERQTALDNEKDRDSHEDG

B1: LIC1(388–523)::6xHis (domain or fragment, human)
chain: WPTAAGRPVDASPRVPGGSPRTPNRSVSSNVASVSPIPAGSKKIDPNMKAGATSEGVLANFFNSLLSKKTGSPGGPGVSGGSPAGGAGGGSSGLPPSTKKSGQKPVLDVHAELDRITRKPVTVSPTTPTSPTEGEAS
notes: single N-terminal tryptophan added in the construct; 15N-labelled for the NMR titration; labelled with Red-Tris NTA dye on the His tag for MST; also called LIC1-C; LIC1-C::6xHis; source: E. coli BL21, purified (GSTrap, PreScission cleavage, second GSTrap, SEC Superdex 75); not shown: GST, N-terminal, cleaved; 6xHis (after linker GSGSG), C-terminal, kept
The Kd is the concentration at which binding is half-saturated. In the case of B1, the Kd in assay [1] is 1.07 µM; in assay [2] it was 5.7 µM; in assay [3], 1.9 µM; in assay [4], 6 µM; in assay [5], 13.1 µM; in assay [6], 4 µM.
